Results taken from US20200199204A1 (UNITED STATES OF AMERICA AS REPRESENTED BY THE SECRETARY …, published 2020).
Substitutions are numbered along the chain they refer to.

How the values were obtained:
Assay in all cases: cell-based or functional assay
[1] = molecular target: HIV-1 Env of Q461.e2 (HIV-1)
[2] = molecular target: HIV-1 Env of SC422.8 (HIV-1)
[3] = molecular target: HIV-1 Env of Q259.d2.17 (HIV-1)
[4] = molecular target: HIV-1 Env of ZM197.7 (HIV-1)
[5] = molecular target: HIV-1 Env of ZM53.12 (HIV-1)
[6] = molecular target: HIV-1 Env of CAP256.PI (HIV-1)
[7] = molecular target: HIV-1 Env of THRO.18 (HIV-1)
[8] = molecular target: HIV-1 Env of ZM135.10a (HIV-1)
[9] = molecular target: HIV-1 Env of DU156.12 (HIV-1)
[10] = molecular target: HIV-1 Env of Q23.17 (HIV-1)
[11] = molecular target: HIV-1 Env of 191821.E6.1 (HIV-1)
[12] = molecular target: HIV-1 Env of DU172.17 (HIV-1)
[13] = molecular target: HIV-1 Env of 6405.v4.c34 (HIV-1)
[14] = molecular target: HIV-1 Env of C1080.c3 (HIV-1)
[15] = molecular target: HIV-1 Env of KER2018.11 (HIV-1)
[16] = molecular target: HIV-1 Env of TRJO.58 (HIV-1)
[17] = molecular target: HIV-1 Env of MB539.2B7 (HIV-1)
[18] = molecular target: HIV-1 Env of 3016.V5.c36 (HIV-1)
[19] = molecular target: HIV-1 Env of Q168.a2 (HIV-1)
[20] = molecular target: HIV-1 Env of CAP244.D3 (HIV-1)
[21] = molecular target: HIV-1 Env of REJO.67 (HIV-1)
[22] = molecular target: HIV-1 Env of RW020.2 (HIV-1)
[23] = molecular target: HIV-1 Env of CAP210.E8 (HIV-1)
[24] = molecular target: HIV-1 Env of CM244.ec1 (HIV-1)
[25] = molecular target: HIV-1 Env of ZM249.1 (HIV-1)
[26] = molecular target: HIV-1 Env of KER2008.12 (HIV-1)
[27] = molecular target: HIV-1 Env of AC10.29 (HIV-1)
[28] = molecular target: HIV-1 Env of WITO.33 (HIV-1)
[29] = molecular target: HIV-1 Env of TRO.11 (HIV-1)
[30] = molecular target: HIV-1 Env of DU422.01 (HIV-1)
[31] = molecular target: HIV-1 Env of ZM109.4 (HIV-1)
[32] = molecular target: HIV-1 Env of CAAN.A2 (HIV-1)
[33] = molecular target: HIV-1 Env of Q842.d12 (HIV-1)
[34] = molecular target: HIV-1 Env of CAP45.G3 (HIV-1)
[35] = molecular target: HIV-1 Env of ZM214.15 (HIV-1)
[36] = molecular target: HIV-1 Env of 6535.3 (HIV-1)
[37] = molecular target: HIV-1 Env of BG505.w6m (HIV-1)
[38] = molecular target: HIV-1 Env of UG037.8 (HIV-1)
[39] = molecular target: HIV-1 Env of 0260.v5.c36 (HIV-1)
[40] = molecular target: HIV-1 Env of CAP256.SU (HIV-1)
[41] = molecular target: HIV-1 Env of 96ZM651.02 (HIV-1)
[42] = molecular target: HIV-1 Env of MB201 (HIV-1)
[43] = molecular target: HIV-1 Env of QH0692.42 (HIV-1)
[44] = molecular target: HIV-1 Env of PVO.04 (HIV-1)
[45] = molecular target: HIV-1 Env of RHPA.7 (HIV-1)
[46] = molecular target: HIV-1 Env of Q769.d22 (HIV-1)
[47] = molecular target: HIV-1 Env of ZM233.6 (HIV-1)

B1: CAP256-VRC26.07 (antibody, V domains shown)
VH: EVQLVESGGGVVQPGRSLRLSCVGSQFSFNRYGMHWVRQAPGKGLEWVAGISFDGTDRYHADNVWGRFTISRDNSKNTLYLQMSSLRAEDTALYYCAKDLREDECEEWWSDYYDFGKKLPCRKSRGVAGVFDKWGQGTMVTVSS
VL: QAVLTQPPSVSAAPGQNVTISCSGSGSNIGNNFVSWYQQRPGTAPKLLIYESNKRPSGIPDRFSGSKSGTSATLAITGLQTGDEAYYYCATWAARLNSARVFGTGTMVTVLG
[1]
  neutralization IC50: > 50 µg/mL
[2]
  neutralization IC50: > 50 µg/mL
[3]
  neutralization IC50: 42.5 µg/mL
[4]
  neutralization IC50: > 50 µg/mL
[5]
  neutralization IC50: 0.014 µg/mL
[6]
  neutralization IC50: > 50 µg/mL
[7]
  neutralization IC50: > 50 µg/mL
[8]
  neutralization IC50: > 50 µg/mL
[9]
  neutralization IC50: > 50 µg/mL
[10]
  neutralization IC50: > 50 µg/mL
[11]
  neutralization IC50: > 50 µg/mL
[12]
  neutralization IC50: > 50 µg/mL
[13]
  neutralization IC50: > 50 µg/mL
[14]
  neutralization IC50: > 50 µg/mL
[15]
  neutralization IC50: 3.1 µg/mL
[16]
  neutralization IC50: > 50 µg/mL
[17]
  neutralization IC50: > 50 µg/mL
[18]
  neutralization IC50: > 50 µg/mL
[19]
  neutralization IC50: > 50 µg/mL
[20]
  neutralization IC50: > 50 µg/mL
[21]
  neutralization IC50: > 50 µg/mL
[22]
  neutralization IC50: > 50 µg/mL
[23]
  neutralization IC50: 0.021 µg/mL
[24]
  neutralization IC50: 40.1 µg/mL
[25]
  neutralization IC50: 44.1 µg/mL
[26]
  neutralization IC50: > 50 µg/mL
[27]
  neutralization IC50: > 50 µg/mL
[28]
  neutralization IC50: > 50 µg/mL
[29]
  neutralization IC50: > 50 µg/mL
[30]
  neutralization IC50: > 50 µg/mL
[31]
  neutralization IC50: > 50 µg/mL
[32]
  neutralization IC50: > 50 µg/mL
[33]
  neutralization IC50: > 50 µg/mL
[34]
  neutralization IC50: > 50 µg/mL
[35]
  neutralization IC50: > 50 µg/mL
[36]
  neutralization IC50: > 50 µg/mL
[37]
  neutralization IC50: > 50 µg/mL
[38]
  neutralization IC50: > 50 µg/mL
[39]
  neutralization IC50: > 50 µg/mL
[40]
  neutralization IC50: 0.008 µg/mL
[41]
  neutralization IC50: > 50 µg/mL
[42]
  neutralization IC50: > 50 µg/mL
[43]
  neutralization IC50: > 50 µg/mL
[44]
  neutralization IC50: > 50 µg/mL
[45]
  neutralization IC50: > 50 µg/mL
[46]
  neutralization IC50: > 50 µg/mL
[47]
  neutralization IC50: > 50 µg/mL

B2: CAP256-VRC26.08 (antibody, V domains shown)
VH: EVQLVESGGGVVQPGRSLTLSCAASQFTFSNYGMHWVRQAPGKGLEWVASVSNDGTKKYHGDSVWGRFTISRDNSKNTLFLQMSSLRAEDTAVYFCVRDQREDECEEWWSDYYDFGRELPCRKFRGLGLAGIFDIWGHGTMVTVSS
VL: QSALTQPPSVSAAPGQKVTISCSGNSSNIGNNFVSWYQQVPGTAPKLLLYETYRRPSGIPDRFSGSKSGTSATLAITGLQTGDEADYYCTVWGVRKGVGAVFGTGTKVTVLG
[1]
  neutralization IC50: 0.969 µg/mL
[2]
  neutralization IC50: > 50 µg/mL
[3]
  neutralization IC50: 0.009 µg/mL
[4]
  neutralization IC50: 0.008 µg/mL
[5]
  neutralization IC50: 0.004 µg/mL
[6]
  neutralization IC50: > 50 µg/mL
[7]
  neutralization IC50: > 50 µg/mL
[8]
  neutralization IC50: > 50 µg/mL
[9]
  neutralization IC50: 0.059 µg/mL
[10]
  neutralization IC50: 13.3 µg/mL
[11]
  neutralization IC50: 0.37 µg/mL
[12]
  neutralization IC50: > 50 µg/mL
[13]
  neutralization IC50: > 50 µg/mL
[14]
  neutralization IC50: 0.012 µg/mL
[15]
  neutralization IC50: 0.003 µg/mL
[16]
  neutralization IC50: > 50 µg/mL
[17]
  neutralization IC50: 31.7 µg/mL
[18]
  neutralization IC50: 0.013 µg/mL
[19]
  neutralization IC50: 0.256 µg/mL
[20]
  neutralization IC50: > 50 µg/mL
[21]
  neutralization IC50: > 50 µg/mL
[22]
  neutralization IC50: > 50 µg/mL
[23]
  neutralization IC50: 0.006 µg/mL
[24]
  neutralization IC50: 1.09 µg/mL
[25]
  neutralization IC50: 0.076 µg/mL
[26]
  neutralization IC50: > 50 µg/mL
[27]
  neutralization IC50: > 50 µg/mL
[28]
  neutralization IC50: > 50 µg/mL
[29]
  neutralization IC50: > 50 µg/mL
[30]
  neutralization IC50: 0.008 µg/mL
[31]
  neutralization IC50: > 50 µg/mL
[32]
  neutralization IC50: > 50 µg/mL
[33]
  neutralization IC50: 40.4 µg/mL
[34]
  neutralization IC50: 4.69 µg/mL
[35]
  neutralization IC50: > 50 µg/mL
[36]
  neutralization IC50: > 50 µg/mL
[37]
  neutralization IC50: 0.143 µg/mL
[38]
  neutralization IC50: > 50 µg/mL
[39]
  neutralization IC50: > 50 µg/mL
[40]
  neutralization IC50: 0.003 µg/mL
[41]
  neutralization IC50: 2.82 µg/mL
[42]
  neutralization IC50: > 50 µg/mL
[43]
  neutralization IC50: > 50 µg/mL
[44]
  neutralization IC50: 11.8 µg/mL
[45]
  neutralization IC50: > 50 µg/mL
[46]
  neutralization IC50: > 50 µg/mL

B3: CAP256-VRC26.09 (antibody, V domains shown)
VH: EVQLVESGGGVVQPGRSLTLSCAASQFNFANYGMHWVRQAPGKGLEWVASISNDGTKKYHEESVWGRFTISKDNSKSTLFLQMNSLRIEDTALYFCVKDQREDECEEWWSDYYDFGRELPCRKSRGLGLAGIFDMWGHGTMVTVSS
VL: B2 VL with V40L, L49I, T52N, Y53N, T77S, Y88W, T90A, K96R, V98A, T104A
[1]
  neutralization IC50: 0.705 µg/mL
[2]
  neutralization IC50: > 50 µg/mL
[3]
  neutralization IC50: 0.008 µg/mL
[4]
  neutralization IC50: 0.011 µg/mL
[5]
  neutralization IC50: 0.002 µg/mL
[6]
  neutralization IC50: > 50 µg/mL
[7]
  neutralization IC50: > 50 µg/mL
[8]
  neutralization IC50: > 50 µg/mL
[9]
  neutralization IC50: 0.016 µg/mL
[10]
  neutralization IC50: 9.5 µg/mL
[11]
  neutralization IC50: 0.054 µg/mL
[12]
  neutralization IC50: > 50 µg/mL
[13]
  neutralization IC50: > 50 µg/mL
[14]
  neutralization IC50: 0.019 µg/mL
[15]
  neutralization IC50: 0.002 µg/mL
[16]
  neutralization IC50: > 50 µg/mL
[17]
  neutralization IC50: 40.7 µg/mL
[18]
  neutralization IC50: 0.004 µg/mL
[19]
  neutralization IC50: 0.181 µg/mL
[20]
  neutralization IC50: > 50 µg/mL
[21]
  neutralization IC50: > 50 µg/mL
[22]
  neutralization IC50: > 50 µg/mL
[23]
  neutralization IC50: 0.002 µg/mL
[24]
  neutralization IC50: 0.105 µg/mL
[25]
  neutralization IC50: 0.01 µg/mL
[26]
  neutralization IC50: > 50 µg/mL
[27]
  neutralization IC50: > 50 µg/mL
[28]
  neutralization IC50: > 50 µg/mL
[29]
  neutralization IC50: > 50 µg/mL
[30]
  neutralization IC50: 0.023 µg/mL
[31]
  neutralization IC50: > 50 µg/mL
[32]
  neutralization IC50: > 50 µg/mL
[33]
  neutralization IC50: 10.1 µg/mL
[34]
  neutralization IC50: 16 µg/mL
[35]
  neutralization IC50: 0.333 µg/mL
[36]
  neutralization IC50: > 50 µg/mL
[37]
  neutralization IC50: 0.054 µg/mL
[38]
  neutralization IC50: > 50 µg/mL
[39]
  neutralization IC50: > 50 µg/mL
[40]
  neutralization IC50: 0.002 µg/mL
[41]
  neutralization IC50: 0.991 µg/mL
[42]
  neutralization IC50: > 50 µg/mL
[43]
  neutralization IC50: > 50 µg/mL
[44]
  neutralization IC50: > 50 µg/mL
[45]
  neutralization IC50: > 50 µg/mL
[46]
  neutralization IC50: > 50 µg/mL
[47]
  neutralization IC50: 0.001 µg/mL
